In the RNAGym collection of RNA variant scans (doi:10.1093/nar/gkz1192):

B1: CPEB3 Ribozyme (parent)
chain: UAACAGGGGGCCACAGCAGAAGCGUUCACGUCGCAGCCCCUGUCAGAUUCUGGUGAAUCUGCGAAUUCUGCUGUAUAUCUC

Variants of: B1
Test: self-cleavage, relative activity (ratio to wild type); higher = more cleavage; in vitro, sequencing
Outline: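 Relative activity was defined as the cleaved/total read fraction for a variant divided by the same fraction for the unmutated ribozyme. CPEB3 self-cleaving ribozyme libraries were made by rounds of error-prone PCR, barcoded, and transcribed in vitro with T7 RNA polymerase for 5 hours at 37°C, and cleavage ran through transcription plus a 15 min DNase I step before EDTA. Illumina sequencing of template-switched reverse transcripts gave the reads, and DNA sequencing mapped the barcodes. Averages come from three batches, using variants with at least 5 reads.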

Row | Variant | self-cleavage
1 | G6A U51C | 0.49
2 | G6A U51A | 0.37
3 | A5U C11G | 0.5
4 | G6U A45G | 0.11
5 | G6U A45U | 0.19
6 | G6A C37U | 0.2
7 | G6A C44U | 0.46
8 | G6U A18U | 0.12
9 | G6U A18C | 0.14
10 | G6A C12A | 0.39
11 | G6A C12U | 0.59
12 | G6A U48C | 0.18
13 | G6A G24A | 0.34
14 | G6A G24U | 0.23
15 | A5U U58C | 0.61
16 | A5U U58A | 0.53
17 | G6A C59A | 0.15
18 | G6A U69A | 0.32
19 | G6A U69C | 0.15
20 | G6A U69G | 0.27
21 | A5U A64C | 0.32

Row | Variant | self-cleavage
22 | A5U A64G | 1.03
23 | A5U A64U | 0.44
24 | G6A G73U | 0.89
25 | A5U A18G | 0.87
26 | A5U A18U | 0.34
27 | A5U C39U | 0.95
28 | A5U G7C | 0.48
29 | A5U G7A | 0.22
30 | A5U G7U | 0.35
31 | A5U C32G | 0.16
32 | A5U C32U | 0.31
33 | A5U C32A | 0.32
34 | A5U U69A | 0.81
35 | A5U U69C | 0.74
36 | A5U G63A | 1.06
37 | G6C C62U | 0.2
38 | G6A U54C | 0.52
39 | G6A U54G | 0.19
40 | G6A U54A | 0.27
41 | G6C U31A | 0.16
42 | G6C U31C | 0.45

Row | Variant | self-cleavage
43 | G6A A45U | 0.38
44 | G6A A45G | 0.14
45 | A5U U80A | 1.32
46 | A5U U80C | 1.12
47 | A5U U80G | 1.14
48 | G6U A20G | 0.26
49 | G6U A20U | 0.34
50 | G6A C39A | 0.49
51 | G6U C11A | 0.16
52 | A5U C68U | 0.99
53 | A5U C68A | 0.29
54 | A5U C79U | 1.24
55 | A5U A21C | 0.29
56 | A5U A21G | 0.77
57 | A5U A21U | 0.53
58 | G6C A21G | 0.56
59 | G6C A21U | 0.39
60 | A5U A65G | 0.55
61 | A5U A65U | 0.28
62 | A5U C34U | 0.55
63 | A5U C34A | 0.65

Row | Variant | self-cleavage
64 | G6A A75U | 0.51
65 | G6A A75G | 0.27
66 | A5U G53A | 1.14
67 | G6A A56G | 0.28
68 | G6A A56U | 0.2
69 | G6A G55U | 0.4
70 | G6A G33A | 0.29
71 | G6A G33U | 0.22
72 | G6A U26A | 0.19
73 | G6A U26C | 0.2
74 | A5U A13C | 1.15
75 | A5U A13G | 1.01
76 | A5U A13U | 1.16
77 | G6C A57G | 0.5
78 | A5U U78C | 0.93
79 | A5U U78A | 1.15
80 | G6A U74C | 0.54
81 | G6C A20G | 0.44
82 | A5U C62U | 0.22
83 | A5U C62G | 0.49
